Consider 5 molecules from patent US20220106382A1.

For assay [1], the target named is RLuc8β2AR (β2-adrenergic receptor fused to RLuc8, BRET donor construct). The assay can be described thus: BRET recruitment assay in co-transfected cells; the concentration is that of isoproterenol. For orientation: BRET reads energy transfer from a luciferase to a nearby fluorophore.
For assay [2] the target is unchanged. The assay can be described thus: BRET recruitment assay, RLuc8β2AR and GFP-arrestin-3 in co-transfected cells; the concentration varied is that of isoproterenol.
Assay [3] has the same target. The assay can be described thus: BRET recruitment assay in co-transfected cells, isoproterenol-induced.
Assay [4] has the same target. Nature of the assay: BRET recruitment assay, RLuc8β2AR and GFP-arrestin-3 mutant in co-transfected cells, isoproterenol-induced.
Assay [5] shares this target. The assay can be described thus: BRET recruitment assay, RLuc8β2AR and GFP-arrestin-3 mutant in co-transfected cells; the concentration varied is that of isoproterenol.

In the case of “GFP-arrestin-3 WT (human wild-type arrestin-3, SEQ ID NO: 1)”, the potency as concentration of isoproterenol for half of the total recruitment of the arrestin to β2AR in assay [1] was found to be 158 nM. Moreover, the Potency (pEC50 of isoproterenol for recruitment of the arrestin to β2AR) in assay [2] was determined as 6.8 pEC50.

As for “GFP-arrestin-3 double mutant A (SEQ ID NO: 2): T299A + I386A”, the increase of efficacy in arrestin recruitment compared to wild-type arrestin-3 in assay [3] was 30%. For the same molecule, the Efficacy (Emax) in %, normalized to WT in assay [4] amounted to 132%. Also, the Potency (pEC50 of isoproterenol for recruitment of the arrestin to β2AR) in assay [5] worked out at 7.1 pEC50.

B1: GFP-arrestin-3 triple mutant D (SEQ ID NO: 5): T299A + I386A + R393A (protein)
chain: MGEKPGTRVFKKSSPNCKLTVYLGKRDFVDHLDKVDPVDGVVLVDPDYLKDRKVFVTLTCAFRYGREDLDVLGLSFRKDLFIATYQAFPPVPNPPRPPTRLQDRLLRKLGQHAHPFFFTIPQNLPCSVTLQPGPEDTGKACGVDFEIRAFCAKSLEEKSHKRNSVRLVIRKVQFAPEKPGPQPSAETTRHFLMSDRSLHLEASLDKELYYHGEPLNVNVHVTNNSTKTVKKIKVSVRQYADICLFSTAQYKCPVAQLEQDDQVSPSSTFCKVYTITPLLSDNREKRGLALDGKLKHEDANLASSTIVKEGANKEVLGILVSYRVKVKLVVSRGGDVSVELPFVLMHPKPHDHIPLPRPQSAAPETDVPVDTNLIEFDTNYATDDDAVFEDFAALRLKGMKDDDYDDQLC
With B1, in assay [4], the Efficacy (Emax) in %, normalized to WT came out at 89.2%. This molecule also yielded a Potency (pEC50 of isoproterenol for recruitment of the arrestin to β2AR) in assay [5] of 7.2 pEC50.

B2: GFP-arrestin-3 triple mutant B (SEQ ID NO: 3): T299A + I386A + R166A (protein)
chain: MGEKPGTRVFKKSSPNCKLTVYLGKRDFVDHLDKVDPVDGVVLVDPDYLKDRKVFVTLTCAFRYGREDLDVLGLSFRKDLFIATYQAFPPVPNPPRPPTRLQDRLLRKLGQHAHPFFFTIPQNLPCSVTLQPGPEDTGKACGVDFEIRAFCAKSLEEKSHKRNSVALVIRKVQFAPEKPGPQPSAETTRHFLMSDRSLHLEASLDKELYYHGEPLNVNVHVTNNSTKTVKKIKVSVRQYADICLFSTAQYKCPVAQLEQDDQVSPSSTFCKVYTITPLLSDNREKRGLALDGKLKHEDANLASSTIVKEGANKEVLGILVSYRVKVKLVVSRGGDVSVELPFVLMHPKPHDHIPLPRPQSAAPETDVPVDTNLIEFDTNYATDDDAVFEDFARLRLKGMKDDDYDDQLC
With B2, the potency as concentration of isoproterenol for half of the total recruitment of the arrestin to β2AR in assay [1] amounted to 50.1 nM. The same molecule yielded an Efficacy (Emax) in %, normalized to WT in assay [4] of 103%. In assay [5], this molecule registered a Potency (pEC50 of isoproterenol for recruitment of the arrestin to β2AR) of 7.3 pEC50.

B3: GFP-arrestin-3 triple mutant C (SEQ ID NO: 4): T299A + I386A + D298A (protein)
chain: MGEKPGTRVFKKSSPNCKLTVYLGKRDFVDHLDKVDPVDGVVLVDPDYLKDRKVFVTLTCAFRYGREDLDVLGLSFRKDLFIATYQAFPPVPNPPRPPTRLQDRLLRKLGQHAHPFFFTIPQNLPCSVTLQPGPEDTGKACGVDFEIRAFCAKSLEEKSHKRNSVRLVIRKVQFAPEKPGPQPSAETTRHFLMSDRSLHLEASLDKELYYHGEPLNVNVHVTNNSTKTVKKIKVSVRQYADICLFSTAQYKCPVAQLEQDDQVSPSSTFCKVYTITPLLSDNREKRGLALDGKLKHEAANLASSTIVKEGANKEVLGILVSYRVKVKLVVSRGGDVSVELPFVLMHPKPHDHIPLPRPQSAAPETDVPVDTNLIEFDTNYATDDDAVFEDFARLRLKGMKDDDYDDQLC
In the case of B3, the Efficacy (Emax) in %, normalized to WT in assay [4] amounted to 109%. Also, the Potency (pEC50 of isoproterenol for recruitment of the arrestin to β2AR) in assay [5] was found to be 7.2 pEC50.
